According to PMC11849073, “Specific recognition mechanism of an antibody to sulfated tyrosine and its potential use in biological research” (The Journal of Biological Chemistry, 2025):

What was measured:
[1] = biological target: BA8 Fab Y31 A mutant (heavy chain) (rabbit); assay: ITC; MicroCal PEAQ-ITC; 10 μM BA8 Fab in the cell, 100 μM CCR5 N-terminal peptide in the syringe; PBS; 25 °C (297 K in the table's footnote); one set of sites
[2] = biological target: BA8 Fab W46 A mutant (heavy chain) (rabbit); assay: as above
Sequence of BA8 Fab W46 A mutant (heavy chain) (rabbit) (heavy, as listed by the source, chain 1 of 2): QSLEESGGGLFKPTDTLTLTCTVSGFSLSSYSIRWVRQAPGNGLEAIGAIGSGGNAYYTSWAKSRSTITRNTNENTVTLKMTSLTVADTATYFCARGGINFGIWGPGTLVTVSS
Sequence of BA8 Fab W46 A mutant (heavy chain) (rabbit) (light, as listed by the source, chain 2 of 2): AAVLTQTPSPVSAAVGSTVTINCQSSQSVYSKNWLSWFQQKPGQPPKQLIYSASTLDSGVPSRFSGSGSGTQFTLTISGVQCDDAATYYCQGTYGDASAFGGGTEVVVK

[3] = biological target: BA8 Fab LC S98 A mutant (light chain) (rabbit); assay: as above
Sequence of BA8 Fab LC S98 A mutant (light chain) (rabbit) (heavy, as listed by the source, chain 1 of 2): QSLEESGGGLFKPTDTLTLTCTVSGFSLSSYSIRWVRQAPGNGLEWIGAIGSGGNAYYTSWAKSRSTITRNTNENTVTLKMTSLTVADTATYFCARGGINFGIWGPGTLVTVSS
Sequence of BA8 Fab LC S98 A mutant (light chain) (rabbit) (light, as listed by the source, chain 2 of 2): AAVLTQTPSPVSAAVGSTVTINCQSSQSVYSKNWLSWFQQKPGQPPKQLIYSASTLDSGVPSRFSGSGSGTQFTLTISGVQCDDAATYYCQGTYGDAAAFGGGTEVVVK

[4] = biological target: BA8 Fab S52 A mutant (heavy chain) (rabbit); assay: as above
Sequence of BA8 Fab S52 A mutant (heavy chain) (rabbit) (heavy, as listed by the source, chain 1 of 2): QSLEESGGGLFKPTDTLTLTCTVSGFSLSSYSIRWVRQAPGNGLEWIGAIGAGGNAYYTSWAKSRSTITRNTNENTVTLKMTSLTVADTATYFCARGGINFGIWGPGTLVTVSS

[5] = biological target: BA8 Fab Y57 F mutant (heavy chain) (rabbit); assay: as above
Sequence of BA8 Fab Y57 F mutant (heavy chain) (rabbit) (heavy, as listed by the source, chain 1 of 2): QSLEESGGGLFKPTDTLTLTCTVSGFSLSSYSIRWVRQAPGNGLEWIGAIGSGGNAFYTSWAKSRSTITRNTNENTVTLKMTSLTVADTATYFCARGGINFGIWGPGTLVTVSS

[6] = biological target: BA8 Fab N55 A mutant (heavy chain) (rabbit); assay: as above
Sequence of BA8 Fab N55 A mutant (heavy chain) (rabbit) (heavy, as listed by the source, chain 1 of 2): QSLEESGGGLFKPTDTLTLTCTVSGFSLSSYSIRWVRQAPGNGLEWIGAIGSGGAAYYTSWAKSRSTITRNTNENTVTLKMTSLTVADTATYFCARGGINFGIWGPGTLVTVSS

[7] = biological target: BA8 Fab S30 A mutant (heavy chain) (rabbit); assay: as above
Sequence of BA8 Fab S30 A mutant (heavy chain) (rabbit) (heavy, as listed by the source, chain 1 of 2): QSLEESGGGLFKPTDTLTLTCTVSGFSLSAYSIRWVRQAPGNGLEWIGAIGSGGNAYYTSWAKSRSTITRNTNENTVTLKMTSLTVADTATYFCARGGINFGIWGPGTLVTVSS

[8] = biological target: BA8 Fab Y57 A mutant (heavy chain) (rabbit); assay: as above
Sequence of BA8 Fab Y57 A mutant (heavy chain) (rabbit) (heavy, as listed by the source, chain 1 of 2): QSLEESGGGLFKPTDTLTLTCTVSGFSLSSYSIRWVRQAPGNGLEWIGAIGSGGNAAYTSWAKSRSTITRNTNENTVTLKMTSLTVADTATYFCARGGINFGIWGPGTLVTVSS

[9] = biological target: BA8 Fab S32 A mutant (heavy chain) (rabbit); assay: as above
Sequence of BA8 Fab S32 A mutant (heavy chain) (rabbit) (heavy, as listed by the source, chain 1 of 2): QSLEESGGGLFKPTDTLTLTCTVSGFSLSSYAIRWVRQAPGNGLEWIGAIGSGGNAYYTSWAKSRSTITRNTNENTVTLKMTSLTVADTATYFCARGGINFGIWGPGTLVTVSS

[10] = biological target: BA8 Fab Y31 A mutant (heavy chain) (rabbit); assay: SPR; Biacore 8K; each Fab immobilised on a CM5 chip by amine coupling (pH 5.5, about 3000 RU); peptides as analytes, 2 to 162 nM (20 nM to 1620 nM for the R34 A, S52 A and Y57 A mutants of Fig. 3C); PBS with 0.005% Tween 20; 30 μl/min; global fitting
[11] = biological target: BA8 Fab W46 A mutant (heavy chain) (rabbit); assay: as above
[12] = biological target: BA8 Fab LC S98 A mutant (light chain) (rabbit); assay: as above
[13] = biological target: BA8 Fab Y57 F mutant (heavy chain) (rabbit); assay: as above
[14] = biological target: BA8 Fab N55 A mutant (heavy chain) (rabbit); assay: as above
[15] = biological target: BA8 Fab S30 A mutant (heavy chain) (rabbit); assay: as above
[16] = biological target: BA8 Fab Y57 A mutant (heavy chain) (rabbit); assay: as above
[17] = biological target: BA8 Fab S32 A mutant (heavy chain) (rabbit); assay: as above

Sequence of BA8 Fab Y31 A mutant (heavy chain) (rabbit) (heavy, as listed by the source, chain 1 of 2): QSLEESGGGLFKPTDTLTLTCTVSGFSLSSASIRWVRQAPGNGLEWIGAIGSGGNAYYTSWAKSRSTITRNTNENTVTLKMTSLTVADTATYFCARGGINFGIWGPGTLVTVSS

Substance: sulfated N-terminal peptide of CCR5 (Pro8 to Ser18 with sulfated Tyr10, Tyr14 and Tyr15)
- Kd [1]: 4.41 nM
- dH [1]: -22.8 kcal/mol
- stoichiometry N [1]: 0.839 sites
- Kd [2]: 6.1 nM
- dH [2]: -27.2 kcal/mol
- stoichiometry N [2]: 0.824 sites
- dH [3]: -26.2 kcal/mol
- stoichiometry N [3]: 0.924 sites
- Kd [4]: 726 nM
- dH [4]: -16.6 kcal/mol
- stoichiometry N [4]: 0.796 sites
- Kd [5]: 10.5 nM
- dH [5]: -25 kcal/mol
- stoichiometry N [5]: 0.896 sites
- dH [6]: -27.6 kcal/mol
- stoichiometry N [6]: 0.844 sites
- dH [7]: -25.8 kcal/mol
- stoichiometry N [7]: 0.892 sites
- Kd [8]: 73.7 nM
- dH [8]: -21.7 kcal/mol
- stoichiometry N [8]: 0.854 sites
- dH [9]: -26 kcal/mol
- stoichiometry N [9]: 0.903 sites
- Kd [10]: 18.6 nM
- Kd [11]: 21.8 nM
- Kd [12]: 2.41 nM
- Kd [13]: 2.36 nM
- Kd [14]: 1.8 nM
- Kd [15]: 1.44 nM
- Kd [16]: 446 nM
- Kd [17]: 1.94 nM
